Some results are limits rather than exact numbers.

Drawing on PMC12579241, this text covers Kd for two substances.

What all share (test): SPR
In general terms: Surface plasmon resonance follows binding to a sensor surface in real time, without labels.

For experiment [1], the target named is IgG1 Fc fragment (prepared by IdeS digest of bevacizumab) (human).
The target of experiment [2] is recombinant Fab fragment of trastuzumab (human) [IgG part: P01857].
Experiment [3] deals with trastuzumab (Herceptin) (human) (UniProt P01834).

In the case of “Azo-ProtG (wild-type C2 domain of streptococcal protein G with N-terminal Azo-tag and C-terminal Strep-tag II) (domain or fragment)”, the values for the Kd in experiment [1] and in experiment [2] were 499 nM and 19700 nM, respectively.

As to “Azo-ProtG^N478R (C2 domain of streptococcal protein G with Asn478 replaced by Arg, N-terminal Azo-ta (domain or fragment)”, the results for the Kd in experiment [1], in experiment [2] and in experiment [3] were 682 nM, over 256000 nM and 459 nM, respectively.

The term Kd denotes the equilibrium constant for the complex coming apart.
